Assays:
CARM1 = CARM1 (UniProt Q86X55); experiment: anti-HA co-IP, anti-MYC blot; details: reference: MYC-CARM1 wild type; sites Y149
RUNX1 = RUNX1 (UniProt Q01196); experiment: anti-MYC IP, anti-RUNX1 blot; details: reference: MYC-CARM1 wild type

Chain of UniProt Q86X55 (Q86X55 whole entry Y149F): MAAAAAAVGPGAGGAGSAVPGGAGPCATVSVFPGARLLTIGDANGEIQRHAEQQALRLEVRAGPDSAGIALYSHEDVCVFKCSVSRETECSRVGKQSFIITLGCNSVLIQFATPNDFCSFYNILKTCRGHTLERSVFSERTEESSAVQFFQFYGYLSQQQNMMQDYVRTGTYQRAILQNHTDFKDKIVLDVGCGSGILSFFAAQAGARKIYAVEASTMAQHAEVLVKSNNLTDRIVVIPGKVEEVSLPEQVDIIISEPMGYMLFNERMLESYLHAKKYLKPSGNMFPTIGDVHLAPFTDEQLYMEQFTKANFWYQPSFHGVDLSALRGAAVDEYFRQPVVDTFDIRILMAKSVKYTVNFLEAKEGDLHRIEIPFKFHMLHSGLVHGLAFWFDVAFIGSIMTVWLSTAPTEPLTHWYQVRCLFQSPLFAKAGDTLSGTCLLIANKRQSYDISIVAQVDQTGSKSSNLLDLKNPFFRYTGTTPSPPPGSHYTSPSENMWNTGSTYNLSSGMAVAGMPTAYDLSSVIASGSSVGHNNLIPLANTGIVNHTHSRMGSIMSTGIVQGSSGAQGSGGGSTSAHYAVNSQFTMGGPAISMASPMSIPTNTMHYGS

| Substance | binding against the reference (CARM1) | binding against the reference (RUNX1; sites Y149) | binding against the reference (RUNX1; sites Y334) |
| --- | --- | --- | --- |
| CARM1 (from UniProt Q86X55) MYC-CARM1 Y149F | weaker | lost | – |
| CARM1 (from UniProt Q86X55) MYC-CARM1 Y334F | – | – | lost |

Source: paper PMC11035800
